{"source": "the nanobody polyreactivity screen of Harvey et al. (2022)"}
{"experiment": "yeast display, Sf9 membrane polyspecificity reagent, FACS + sequencing; frameworks hold sequencing errors", "in_short": "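Sorting gates, low and high (top ~1%), were placed on anti-HA fluorescence to track expression and on streptavidin fluorescence to track reagent binding. A clone's polyreactivity label is taken from the gate it came out of. The reagent was 10% biotinylated, detergent-solubilized Sf9 membrane, applied for 1 hour at 4 °C to galactose-induced yeast display cells.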"}
{"sequence": "QVQLVESGGGLVQAGGSLRLSCAASGFTFYRYTMGWYRQAPGKERELVAAISRGGRTYYADSVKGRFTISRDNAKNTVYLQMNSLKPEDTAVYYCNARYPSADDWGQGTQVTVSS", "polyreactivity (PSR sort gate)": "high polyreactivity"}
{"sequence": "QVQLVESGGGLVQAGGSLRLSCAASGFTFYRYTMGWYRQAPGKERELVAAISRRGGRTYYADSVKGRFTISRDYAKNSVYLQMNSLKPEDTAVYYCAADSAAYVFGEAYDYWGKGTQVTVSS", "polyreactivity (PSR sort gate)": "high polyreactivity"}
{"sequence": "QVQLVESGGGLVQAGGSLRLSCAASGFTFYRYTMGWYRQAPGKERELVASITRRGGSTYYADSVKGRFTISRDNAKNTVYLQMNSLKPEDTAVYYCNAATPVWQSGTYEYWGQGTQVTVSS", "polyreactivity (PSR sort gate)": "high polyreactivity"}
{"sequence": "QVQLVESGGGLVQAGGSLRLSCAASGFTFYSNAMGWYRQAPGKERELVAAINWGGGSTYYADSVKGRFTISRDNAKNTVYLQMNSLKPEDTAVYYCAAEPIWEYWNGVSYAYDYWGQGTQVTVSS", "polyreactivity (PSR sort gate)": "low polyreactivity"}
{"sequence": "QVQLVESGGGLVQAGGSLRLSCAASGFTFYSNAMGWYRQAPGKERELVAAISYSGGSTYYADSVKGRFTISRDNAKNTVYLQMNSLKPEDTAVYYCAAGGLQQGDYWGQGTQVTVSS", "polyreactivity (PSR sort gate)": "low polyreactivity"}
{"sequence": "QVQLVESGGGLVQAGGSLRLSCAASGFTFYSNAMGWYRQAPGKEREMVATITASGGSTYYADSVKGRFTNSRDNAKYTVYVQMYSLKPEDTAVYYCAKDLYWYYRRRGQYVYWGQGTQVTVSS", "polyreactivity (PSR sort gate)": "high polyreactivity"}
{"sequence": "QVQLVESGGGLVQAGGSLRLSCAASGFTFYSYAMGWNRQAPGKERELVAAISGGGGSTYYADSVKGRFTISRDNAKNTVYLQMNSLKPEDTAVYYCAKRPAYRGYGLGYYWGQGTQVTVSS", "polyreactivity (PSR sort gate)": "high polyreactivity"}
{"sequence": "QVQLVESGGGLVQAGGSLRLSCAASGFTFYSYAMGWYRQAPGKERELVAAISRSGGRTYYADSVKGRFTISRDNAKNTVYLQMNSLKPEDTAVYYCAAEAYGPYSYSYSPYGYYYWGQGTQVTVSS", "polyreactivity (PSR sort gate)": "high polyreactivity"}
{"sequence": "QVQLVESGGGLVQAGGSLRLSCAASGFTFYSYAMGWYRQAPGKERELVAAISWSGTRTYYADSVKGRFTISRDNAKNTVYLQMNSLKPVDTAVYDCAADTRRWARGYDYWGQGTQVTVSS", "polyreactivity (PSR sort gate)": "high polyreactivity"}
{"sequence": "QVQLVESGGGLVQAGGSLRLSCAASGFTFYSYAMGWYRQEPGKEREFVAAITSRGGSTYYADSVKGRFTISRDNAKNTVYLQMNSLKPEDNAVYYCAAYAGYSDQARYYYWGQGTQVTVSS", "polyreactivity (PSR sort gate)": "high polyreactivity"}
{"sequence": "QVQLVESGGGLVQAGGSLRLSCAASGFTFYSYTMGWYRQAPGKERELVAAISGRSVRTYYADSVKGRFTISRDNAKNTVYLQMNSLKPEDTAVYYCARAYYWRTSWYNYWGQGTQVTVSS", "polyreactivity (PSR sort gate)": "high polyreactivity"}
{"sequence": "QVQLVESGGGLVQAGGSLRLSCAASGFTFYTNAMGWYRQAPGKEREFVAAISFSGGTYYADSVKGRFTISRDNAKNTVYLQMNSLKPEDTAVYYCNARYPRYYRGVIQYDYWGQGTQVTVSS", "polyreactivity (PSR sort gate)": "low polyreactivity"}
{"sequence": "QVQLVESGGGLVQAGGSLRLSCAASGFTFYTNTMGWYRQAPGKERELVAAISSGGSTYYADSVKGRFTISLDNAKNTVYLKMNSLKPEVTAVYYCAVYGPWAYYPMGYWGQGTQVTVSS", "polyreactivity (PSR sort gate)": "low polyreactivity"}
{"sequence": "QVQLVESGGGLVQAGGSLRLSCAASGFTFYTYAMGWYRHAPGKERELVAAITSSGGSTYYADSVKGRFTISRDNAKNSVYLQMNSLKPEDTAVYYCKAVSYYLGDDYWGQGTQVNVSS", "polyreactivity (PSR sort gate)": "high polyreactivity"}
{"sequence": "QVQLVESGGGLVQAGGSLRLSCAASGFTFYTYAMGWYRPAPGKERELVATITIGDGSTYYADSVKGRFTISRDNAKNTVYLQMNSLKPEDTAVYYCNRDSVGYDYWGQGSQVTVSS", "polyreactivity (PSR sort gate)": "low polyreactivity"}
{"sequence": "QVQLVESGGGLVQAGGSLRLSCAASGFTFYTYVMGWYRQAPGKERELVAAISGRGGSTYYADSVKGRFTISRDNAKNTVYLQMNSLKPEDTAVYYCATVRSYSRVVGYDYWGQGTQVTVSS", "polyreactivity (PSR sort gate)": "high polyreactivity"}
{"sequence": "QVQLVESGGGLVQAGGSLRLSCAASGFTFYVNVMGWYRQPPGKEREFVAAIRTRGASTYYADSVKGRFTISRDNAKNTVYLQMNSLKPEDTADYYCAAGWFWNYWYGVSMDYWGQGTQVTVSS", "polyreactivity (PSR sort gate)": "high polyreactivity"}
{"sequence": "QVQLVESGGGLVQAGGSLRLSCAASGFTFYVYAMGWYRQAPGKERELVAAISKSGGSTYYADSVKGRFTISRDNAKNTVYLQMNSLKPEDTAVYYCAVYDKRSGYRGGHRYNSWGQGTQVTVSS", "polyreactivity (PSR sort gate)": "high polyreactivity"}
{"sequence": "QVQLVESGGGLVQAGGSLRLSCAASGFTFYWYAMGWYRQAPGKERELVAAITRSGSSTYYADSVKGRFTISRDNAKNTVYLQMNSLKPEDTAVYYCAKAYRPPGYDSWGQGTQVTVSS", "polyreactivity (PSR sort gate)": "high polyreactivity"}
{"sequence": "QVQLVESGGGLVQAGGSLRLSCAASGFTFYYNAMGWYRQAPGKERELGASITRSGGRTYYADSVKGRFTISRDYAKNTVYLQMNSLKPEDTAVYYCARRYPGGYYWGQGTHVTVSS", "polyreactivity (PSR sort gate)": "high polyreactivity"}
{"sequence": "QVQLVESGGGLVQAGGSLRLSCAASGFTFYYYALGWYRQAPGKERELVAAISTRDGNTYYADSVKGRFTISRDNAKNTVYLQMNSLKPEDTAVYYCAADSYSGYNYWGQGTQVTVSS", "polyreactivity (PSR sort gate)": "low polyreactivity"}
{"sequence": "QVQLVESGGGLVQAGGSLRLSCAASGFTFYYYAMGWYRQAPGKERELVAAITSSGGRTYYADSVKGRFTISRDNAKNTVYLQMNSLKPEDTAVYYCAATGFYHRGEYYYWGQGTQVTVSS", "polyreactivity (PSR sort gate)": "low polyreactivity"}
{"sequence": "QVQLVESGGGLVQAGGSLRLSCAASGFTFYYYAMGWYRQAPGKERELVAAITWSGDSTNYADSVKGRFTISRDNAKNSVYLQMNSLKPEDTAVYYCATESYDSYGLYDYWGQGTQVTVSS", "polyreactivity (PSR sort gate)": "low polyreactivity"}
{"sequence": "QVQLVESGGGLVQAGGSLRLSCAASGFTFYYYAMGWYRQAPGKERELVAGINSDGNTYYADSVKGRFTISRDNAKNTVYLQMNSLKPEDTAVYYCAARKLWPKNFVRHDYWGQGTQVTVSS", "polyreactivity (PSR sort gate)": "low polyreactivity"}
{"sequence": "QVQLVESGGGLVQAGGSLRLSCAASGFTFYYYAMGWYRQAPGKERELVARITSGGSTYYADSVKGRFTISRDNAMYTVYLQMNCLKPEDTAVYYCNVDVSVEVAYWGQGTQVTVSS", "polyreactivity (PSR sort gate)": "low polyreactivity"}
{"sequence": "QVQLVESGGGLVQAGGSLRLSCAASGFTFYYYAMGWYRQAPGKERELVAVITSGGNTYYADSVKGRFTISRDNAKNNVYLQMNSLKPEDTAVYYCAKDVSDPFYDPFEYWGQGTQVTVSS", "polyreactivity (PSR sort gate)": "low polyreactivity"}
{"sequence": "QVQLVESGGGLVQAGGSLRLSCAASGFTFYYYAMGWYRQAPGTEMELVAALSRSGVRTYYADSVNGRFTISRDNGKNTVYLQMTSLKPEDTAVYYCAAEFARSRMNYWGQGTKVTVSS", "polyreactivity (PSR sort gate)": "high polyreactivity"}
{"sequence": "QVQLVESGGGLVQAGGSLRLSCAASGFTHDWYAMGWYRQAPGKERELVAAIWSAGTTYYADSVKGRFTISRDNAMNTVYLQMNSLKPEDPAVYYCATVSDYDFGLYDYWGQGTQVTVSS", "polyreactivity (PSR sort gate)": "low polyreactivity"}
{"sequence": "QVQLVESGGGLVQAGGSLRLSCAASGFTIAYYAMGWYRQAPGKERELVAAITTSGSTYYADSVKGRFTISRDNAQNTVYLQMNSLKPEDTAVYYCAVSIWGWFASGFDYWGQGTQVTVSS", "polyreactivity (PSR sort gate)": "high polyreactivity"}
{"sequence": "QVQLVESGGGLVQAGGSLRLSCAASGFTIDAYAMGWYRQAPGKDRELVAAISGSGGSTYYADSVKGRFTISRDNAKNTVYLQMNSLKPEDTALYYCAKDPGPYDYDYWGQGTQVTVSS", "polyreactivity (PSR sort gate)": "low polyreactivity"}
{"sequence": "QVQLVESGGGLVQAGGSLRLSCAASGFTIDLYAMGWYRQAPGKERELVAAISIRGGSTYYADSVKGRFTISRDNAKNTVYLQMNSLKPEDTAVYYCATVTSRRSYIAYRGTGDYDYWGQGTQVTVSS", "polyreactivity (PSR sort gate)": "low polyreactivity"}
{"sequence": "QVQLVESGGGLVQAGGSLRLSCAASGFTIFYYAMGWYRQAPGKERELVASISWSGGSTYYADSVMGRFTISRENAKNSVYLQMNSLKPEDTAVYYCAADVPFGGDYWGQGTQVTVSS", "polyreactivity (PSR sort gate)": "low polyreactivity"}
{"sequence": "QVQLVESGGGLVQAGGSLRLSCAASGFTISRYAMGWYRQAPGKERELVAAITWSGVSTYYADSVKGRFTISRDNAKNTVYLQMNSRKPEDTAVYYCAATTYSSSSSHDYWGQGTQVTVSS", "polyreactivity (PSR sort gate)": "low polyreactivity"}
{"sequence": "QVQLVESGGGLVQAGGSLRLSCAASGFTISVYAMGWYRQAPGKERELVAAISWNGGRTYYAVSVKGRFTISRDNAKNTVYLQMNSLKPEDSAVYYCNKVSGYDVDYWGQGTQVTVSS", "polyreactivity (PSR sort gate)": "high polyreactivity"}
{"sequence": "QVQLVESGGGLVQAGGSLRLSCAASGFTITQYGMGWYRQAPGKERELVADITYSGGDTYYADSVKGRFTISRDNAKNTVYLQMNSLKPEDTAVYFCAAYSWKYCFVWGYVYWGQGTQVTVSS", "polyreactivity (PSR sort gate)": "high polyreactivity"}
{"sequence": "QVQLVESGGGLVQAGGSLRLSCAASGFTIVTYAMGWYRQAPGKERELVAAISKSGGTTYYADSVKGRFTISRDNAKNTVYLQMNSLKPEDTAVYYCNKRWYIARPVDRYRYYYWGQGTQVTVSS", "polyreactivity (PSR sort gate)": "high polyreactivity"}
{"sequence": "QVQLVESGGGLVQAGGSLRLSCAASGFTIVYYAMGWYRQAPGKERELVAAITWSGGNTYYADSVKWRITISRDNAKNTVYLHMNSLKPEDNAVYYCAASPRGRRTTVGYPRRPFDYWGLGTQVTVSS", "polyreactivity (PSR sort gate)": "high polyreactivity"}
{"sequence": "QVQLVESGGGLVQAGGSLRLSCAASGFTIWAYTMGCYRQAPGKEREFVADITSRGGSTFYADSVKGRFTISRDNAKNTVYLQMNSLKPEDTAVDYCAAEGFDTRMYYWGQGTQVTVSS", "polyreactivity (PSR sort gate)": "high polyreactivity"}
{"sequence": "QVQLVESGGGLVQAGGSLRLSCAASGFTIWDYAMGWYRQAPGKERELVAAISWSGGSTYYADSVKGRFTISRDNAKNTVYLQMNSLKPEDTAVYYCNAVHYSHHGYDYWGQGTQVTVSS", "polyreactivity (PSR sort gate)": "low polyreactivity"}
{"sequence": "QVQLVESGGGLVQAGGSLRLSCAASGFTIWRYAMGWYRQAPGKERELVAAISWRGGSTYYADSVKGRFTISRDNAKNTVYLQMNSLKPEDTAVYYCAAAYNLPPGYDYWGLGTQVTVSS", "polyreactivity (PSR sort gate)": "high polyreactivity"}
{"sequence": "QVQLVESGGGLVQAGGSLRLSCAASGFTIWWYAMGWSRRAPGKERELVATITSGGRTNYAYSVKGRFTISRDNAKNTVYLQMTSLKPEDTAVYYCATRQLSKVKDMDYWGQGTQVTVSS", "polyreactivity (PSR sort gate)": "high polyreactivity"}
{"sequence": "QVQLVESGGGLVQAGGSLRLSCAASGFTIYRYAMGWYRQAPGKERELVATIRRGGSTKYADSVKGRFTISRDNAKNTVYLQMNSLKPEDTAVYYCNARYYAAPDKYYYWGQGTQVTVSS", "polyreactivity (PSR sort gate)": "low polyreactivity"}
{"sequence": "QVQLVESGGGLVQAGGSLRLSCAASGFTIYYYTMGWYRQAHGKERELVAAITWRGGSTNYADSVKGRFTISRDNAKNTVYLQMNSLKPEDTAVYYCAAVTYWFWPGMDYWGQGTQVTVSS", "polyreactivity (PSR sort gate)": "low polyreactivity"}
